Drawing on paper PMC3364216, this text covers HJ resolution activity of RecUMge (0.2 uM) on HJ 1.1 preincubated with RecUMge before RuvAMge (0 to 4 uM) was added; percent inhibition (≥20% only and HJ resolution activity of RecUMge (0.2 uM) on HJ 1.1 preincubated with RuvAMge (0 to 4 uM) before RecUMge was added; percent reduction of activity (about 20% for one substance.

In the test the target is RecU protein from Mycoplasma genitalium (RecUMge) (Mycoplasma genitalium) (UniProt Q49422).

Bounds are passed on as bounds.

The substance “RuvA homologue from Mycoplasma genitalium (RuvAMge), H10-tagged (from UniProt Q49424 1-205) (natural protein)” registered an HJ resolution activity of RecUMge (0.2 uM) on HJ 1.1 preincubated with RecUMge before RuvAMge (0 to 4 uM) was added; percent inhibition (≥20% only at ≥250 nM) of more than 80% and an HJ resolution activity of RecUMge (0.2 uM) on HJ 1.1 preincubated with RuvAMge (0 to 4 uM) before RecUMge was added; percent reduction of activity (about 20% at 60 nM, highest at 1 uM or more) of more than 80%.
